This data set in a line: yeast display, Sf9 membrane polyspecificity reagent, FACS + sequencing; frameworks hold sequencing errors. An outline of the steps:
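A synthetic nanobody library was expressed on Saccharomyces cerevisiae BJ5465 by galactose induction for 36–48 hours. The library was stained for 1 hour at 4 °C with 10% biotinylated, detergent-solubilized Sf9 membrane reagent and enriched with streptavidin microbeads before FACS. Low and high (top ~1%) gates were set on anti-HA fluorescence for expression and streptavidin fluorescence for reagent binding, and each polyreactivity label reflects the gate of origin.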
As to “QVQLVESGGGLVQAGASLRLSCAPSGSTFYPNSMAWYRQSPGKERHLVDAITSGGSTYYADSVKGRFTISRDNSKNTVYLQMNSLKPEDTAVYYCAAQRRYHQDTTIAPGNYYYWGQGTQVTVSS”, the “polyreactivity (PSR sort gate)” value is “low polyreactivity”. The value for “QVQLVESGGGLVQAGGSLSLSSDASGSPLFSDAMGWYRQAPGKEREFVAAISRRGRSTYYADSVKGRFTISRDNAKNSVYFQMNSLIPEDTAVYYCAARDSSYNWYGYWGQGTQVTVSS” was “high polyreactivity”; that for “QVQLVESGGGLVQAGGSLRLSCAASGRIFTPYAMGWYRQAPRKERELVAVIRDGSTYYADSVKGRFTISRDNAKYNVYLQMKSLIPEDTAVYYCRYDIWVWWSGAYDYWGQGTQVTVSS” was “low polyreactivity”.

Regarding “QVQLVESGGGLVQAGGSLRLSCAASGSTFRHYAMGWYRQAPGKERELVAAISYSGSRTYYADSVKGRFTISRDNAKNTVYLQMNSLKPEDTAVYYCNVNLQGRYSDKYDYWGQGTQVTVSS”, the “polyreactivity (PSR sort gate)” value is listed as “high polyreactivity”.

As for “QVQLVESGGGLVQAGGILRLSCAASGFIFKSYAMGWYRQAPGKERELVAGITRRGGSTYYADSVKGRFTISRDNAKNTVYLQMNILKPEDTAVYYCNAGRKTADYDFLGQGTQVTVSS”, the “polyreactivity (PSR sort gate)” value was “high polyreactivity”. With “QVQLVESGGGLVQAGGSLRLSCAASGSTFVYYAMGWYRQAPGKETEFVAAISISSGSTYYADSVKGRFTISRDNAKNTVYLQMNSLKPEDTAVYYCAVDWFLGGYDDLDYWGQGTQVTVSS”, the “polyreactivity (PSR sort gate)” value was “low polyreactivity”. With “QVQLVESGGGLVQAGGSLRLSCAASGFIFSTNAKGWYSQAPGKERELVATIRSGVSTYYADSVKGRFTISRDNAKNTVYLQMNSLKPEDTAVYYCNVDDTSRTTSGGRFGQVESDYWGQGTQVTVSS”, the “polyreactivity (PSR sort gate)” value is recorded as “low polyreactivity”.

Regarding “QVQLVESGGGLVQAGGSLRLSCAASGFIFQDYALGWYRQAPGKERELVAAISRSTGSTYYADSVKGRFTISRDNPKNTVYLQMNSLKPEDTAVYYCAKPRSWGYNWGQGTQVTVSS”, the “polyreactivity (PSR sort gate)” value is “high polyreactivity”. The value for “QVQLVESGGGLVQAGGSLRLSCAASGRTFGRNAMGWYRQAPGERELVAVISRGGSTYYADSVKGRFTISRDNAKNTVYLQMNSLKPEDTAVYYCNADTVYTRTAPYDYWGQGTQVTVSS” was “low polyreactivity”.

Regarding “QVQLVESGGGLVQAGGSLRLSCAASGRIFSKNAMGCYRQQPGKERELVAAISRSGGGTYYADSVKGRFTISRDTAKNTVYLQMNSLKPEDTAVYYCATRYGSWGQGTQVTVSS”, the “polyreactivity (PSR sort gate)” value is on record as “high polyreactivity”. In the case of “QVQLVESGGGLVQAGGSLRLSCAASGITLINYAMGWYRQAPGKERELVAAISTSGSSTYYADSVKGRFTISRDNAKNTVYLQMNSLKQEDTAVYYCNAEGQPLYVSWHDHRYIYGFDYWGQGTQVTVSS”, the “polyreactivity (PSR sort gate)” value is “low polyreactivity”. As to “QVQLVESGGGLVQAGGSLRLSCAASGGTFRNYAMGWYRQAPGKERELVAAITTGTITNYADSVKGRFTISRDNAKNTVYLQLNSLKPEDTAVYYCNAGAFYSDPYVYWGQGNQVTVSS”, the “polyreactivity (PSR sort gate)” value is “low polyreactivity”. Consider “QVQLVESGGGLVQAGGSLRLSCAASGFTFYSYAMGWYRQAPGKERELVATISSGGRTYYADSVKGRFTISRDNAKNTVYLQMNSLKPEDTAVYYCAARWRPHPFAPPGYYSWGQGTQVTVSS”, for which the “polyreactivity (PSR sort gate)” value is on record as “high polyreactivity”. The same measure for “QVQLVESGGGLVQAGGSLRLSCAASGYTIESYTMGWYREAPGKEREFVAVISSSDTSTSYADSVKGRFTISRDNAKNTVYLQMNSLKPEDTAFYYCAAYSSPYYITYYWYNYDYWGQGTQVTVSS”: “low polyreactivity”; for “QVQLVESGGGLVQAGGSLRLSSAASGRIIDDNTMGWYRQAPGKERELVAAISVSGGRTYYADSVKGRFTISRDNAKNTVYLQMNSLNPEDTAVYFCAAARGGEYWGQGTQVTVSS”: “high polyreactivity”; for “QVQLVESGGGLVQAGGILRLICAASGSTFPYNAMGWYRQAPGKERELVAAISSGGSTYYADSVNGRFTISRDNAKNTVYLELNSQKPEDTAVYYCAASLGKYIRSLGYGYWGQGTQVTVSS”: “high polyreactivity”. Consider “QVQLVESGRGLVQAGGSLRLSCAASGLTFSKYAMGWYRQAPGKERELVATISRSGGSTYYADSVKGRFTISRDNAKNTVYVQMNSLKPEDTAVYYCAAGSILYGATGEYIYWGQGTQVTVSS”, for which the “polyreactivity (PSR sort gate)” value is listed as “high polyreactivity”.

Consider “QVQLVESGGGLVQAGGSLRLSCAASGLTLVTYAMGSYRQAPGKERELVAAINSGGSTNYADSVKGRFTISRDNAKNTVYLQMNSLKPEDTAVYYCNADRVSPATYDYWGQGTQVTVSS”, for which the “polyreactivity (PSR sort gate)” value was “low polyreactivity”. As to “QVQLVESGGGLVQAGGSLRLSCAASGRISAYAMGWYRQAPGKERELVAAISSRGGRTYYADSVKGRFTISRDNAKTTVYLQMNSLKPEDTAVYYCNALRPWEFDHWGHGTQVTVSS”, the “polyreactivity (PSR sort gate)” value is “high polyreactivity”. The value for “QVQLVESGGGLVQAGGSLRLSCAASGRTFNRNAMGWYRQAPGKERELVAAISWSGGRTYYADSVKGRFTISRDTAKNTVYLQMNSLKPEDTAVYYCAAPGKKYWGQGTQVTVSS” was “high polyreactivity”; that for “QVQLVESGGGLVQAGGSLRLSCAASGLTFVYYAMGWSRPAPGKERELVAAISRGGTTYYADSVKGRFTISRDNAKNTVYLQMNSLKPEDTAVYYCARVGRYRYEWGQGTQVTVSS” was “high polyreactivity”. In the case of “QVQLVESGGGLVQARGSLRLSCEASGFTFGSNTMACYRQAPGKERELVAAITRRGGSTNYADSVKGRFTISRDNAKNTVYLQMNSLKPDDTAVYYCARDYRSYTVSYDTSYDYWGQGTQVTVSS”, the “polyreactivity (PSR sort gate)” value is recorded as “high polyreactivity”. In the case of “QVQLVESGGGLVQAGGSLRLSCAASGGNFRLYAMGWYSPAPGKERELVAAINGGGSTNYADSVKGRFTISRDNAKNTVYLQMNSLKPEDTAVYYCNAVQYYRFQVYEYDYWGQGTQVTVSS”, the “polyreactivity (PSR sort gate)” value is recorded as “high polyreactivity”. Take “QFQLVESGGGLVQAGGSLRLSCAASGSIFYRNAMGWYRQAPGKERELVAAISRRGGSTYYADSVKGRFTISRDNAKNTVYLQMNSLKPEDTAVYYCATDGSTSKLVTVAYDYWGQGTQVTVSS”: the “polyreactivity (PSR sort gate)” value is given as “high polyreactivity”. “QVQLVESGGGLVQAGGSLRLSSAASGRTISNYDMGWYRQAPGKERELVAAITYSGGSTYYADSVKGRFTISRDNAKNTVYLQMNSLKPEDTAVYYCAKISGTYYRYDYWGQGTQVTVSS”: the “polyreactivity (PSR sort gate)” value is listed as “high polyreactivity”. Turning to “QVQLVESGGGLVHAGGSLRLSCAASGRTLWYYTMGWYRQAPGKEMELVADITRGTSTNYADSVKGRFTISRDNAKNTVYLQMNILKPEDTAVYYCNRAHGRSRYSRDYDSWGQGTQVTVSS”, the “polyreactivity (PSR sort gate)” value was “low polyreactivity”. With “QVQLVESGGGLVQAGGTLRLSCSASGIISTYYAMGWYRQAPGKERELVAAITSGGSTYYADSVKGRFTISRDNAKNTVYLQMNSLKPEDTAVYYCATRRIYKWYRYYYWGQCTQVTVSS”, the “polyreactivity (PSR sort gate)” value is recorded as “high polyreactivity”.

Turning to “QFQLVESGGGLVQAGGSLRLSCAASGINFGRNTMGMYRQAPGKERELVAAIDSGGNTYADSVKGRFTISRDNAKNTVYLQMNSLKPEDTAVYFCAVDGGEFSSYGYWGQGTQVTVSS”, the “polyreactivity (PSR sort gate)” value is given as “low polyreactivity”.

Consider “QVQLVESGGGLVQAGGSLRLSCAASGITFPSYAMGWYRQAPGKERELVATISRGDSTYYADSVKGRFTISRDNAKNTVYLQMNSLKPEDTAVYYCATRAYRLDPLQHDYWGQGTQVTVSS”, for which the “polyreactivity (PSR sort gate)” value is “low polyreactivity”. For the sequence “QVQLVESGGGLVQAGGSLRLSCAASGFIFGDNAMGWYRQAPGKERELVAAINSSGGRTYYADSVKGRFTISRDNAKNTVYLQMNSLKPEDTAVYYCNAAYGIASYGSSYYWGQGTQVTVSS”, the “polyreactivity (PSR sort gate)” value is on record as “high polyreactivity”. Regarding “QVQLQESGGGLVQAGGSLLSCAASGPISYYREMGWYRQAPGKERELVAGFGVGTITYYADSVKGRFTISRDNAKNTVYLQMNSLKPEVTAVYYCAAHIDGNDSHAYWGQGTQVTVIS”, the “polyreactivity (PSR sort gate)” value is reported as “low polyreactivity”.

For “QVQLVESGGGLVQAGGSLRLSCAASGRLFKRYNMGWYRQGPGKDRELVAAIRSGGSTNYADSVKGRFTISRDNAKNTVYLPMNSLKPEDTAVYYCAARSTAYRGGSYAYDYWGQGTQVTVSS”, the “polyreactivity (PSR sort gate)” value is reported as “high polyreactivity”. On to “QVQLVESGGGLVQAGGSLRLSCAASGSTFYRNAMGWYRPAPGKERELVAAISQRGGRTYYADSVKGRFTISRDNAKNTVYLQMNSLKPEDTAVYYCNKFRGINHLYDMNYWGQGTQVTVSS”, for which the “polyreactivity (PSR sort gate)” value was “high polyreactivity”. Take “QVQLVESGGGLVQAGGSLRLSCAASGRTFIYNTMGWYRQAPGKERELVAAITSGGSTNYADSVKGRFTISRDNAKNTVYLQMNSLKPEDTAVYYCATQGLSAPFDGFVNSRFDHWGQGTQVTVSS”: the “polyreactivity (PSR sort gate)” value is “low polyreactivity”.

For the sequence “QVQLVESGGALLQAGGSLRLSCAASGSIFRFYAMGWYRQAPGKERELVARISGGGTTNYADSVKGRFTISRDNAKYTVYLQKNSQKPDDTAVYYCAAGCLYLPIWYPRWRYEYWGQGTQVTVSS”, the “polyreactivity (PSR sort gate)” value was “low polyreactivity”. The same measure for “QVQLVESGGGLVQAGGSLRLSCAASGSIFEPNAMGWYRQAPGTERELVAAISWNDGDTYYADSVKGRFTISRDNAKNTVYFQMNSLKPEDPAVYYCAAAISLYSYDYWGQGTQVTVSS”: “low polyreactivity”; for “QVQLVESGGGLVQAGGSLRLSCAASGFIFGYYAMGWYRQAPAKERELVAAINWSGGSTYYADSVKGRFTISRDNAKNTVYLQMNSLKPEDTAVYYCAARYPYRRGGQDSYYYWGQGTQVTVSS”: “high polyreactivity”; for “QVQLVESGGGLVQAGGSLRLSCAASGITFRHYAMGWYRQAPGKEREFVAAITASGSSTYYADSVKGRFTISRDTAKNTVYLQMNSLKPEDTAVYYCAAAGYKYNSRGDYWGPGTQVTVSS”: “high polyreactivity”. Take “QVQLVESGGGLVQAGGSLRISCAASGFTFYRYAMGWYRQAPGKESELVAAITRSGRTYYADSVKGRFTISRDNAKNTFYLQMNSLKPEDTAVYYCYADWGLGTQVTVSS”: the “polyreactivity (PSR sort gate)” value is “high polyreactivity”. “QVQLVESGGGLVQAGGSLRLSCAASGLIFYRNAMGRTRQAPGKERELVAAISASGGRTYYADSVKGRFTISRDTEKNTVYLPMNSLKPEDTAVYYCAAKSLLLSMDYWGQGTQVTVSS”: the “polyreactivity (PSR sort gate)” value is given as “high polyreactivity”. Take “QVQHVESGGGLVQAGGRLRLSCAASGSIFYSNAIGWYRQAPGKEWELVATITWSGGRTYYADSVKGRFTISRDNAKNTVYLQMNSLKPEDTAVYYCAAVSIYWGQGTQVTVSS”: the “polyreactivity (PSR sort gate)” value was “low polyreactivity”.
